Reference: patent US20200239555A1 (STATEN BIOTECHNOLOGY B V, published 2020)

Tests used:
[1] = biological target: T1, biotinylated native human ApoC3 (human, UniProt P02656 21-99, biotinylated (site not stated)); experiment: SPR, IgG1 over biotinylated ApoC3 on SA chip, pH 7.4
T1 construct: also called biotinylated human ApoC3
Experimental: (§1) Biotinylated native human ApoC3 was captured on a streptavidin coated SPR chip (GE Healthcare, cat. nr. BR100032) at pH 7.4, in accordance with the method provided by Biacore, by injection of 20 μl 10 μg/ml biotinylated native human ApoC3 reaching the surface density of approximately 500 RU. 60 μL of test antibody in 1-50 nM range diluted in HBS-EP buffer (GE, cat # BR-1008-26; 0.010 M HEPES, 0.150M NaCl, 3 mM EDTA, 0.05% (v/v) surfactant P20, pH 7.4) was injected and passed through the flow cells at a flow rate of 30 μl/min, followed by an off-rate wash at pH7.4 for 5 min. After the dissociation, the flow cell surfaces were regenerated by injecting 10 μl of 10 mM NaOH/1 M NaCl and 10 μl of 10 mM glycine at pH1.5. The assay was repeated at pH5.5 using the same general protocol, where the running and sample dilution buffer was replaced by a HBS-EP buffer supplemented with citrate buffer to 10 mM final concentration and pH adjusted to 5.5.
(§2) The resulting sensorgrams were analyzed using the BIAevaluation 4.1 software using Langmuir 1:1 binding model to derive binding kinetics. Data was zero adjusted and the reference cell sensorgrams were subtracted. Sensorgrams were double referenced to no-analyte blank assay. Fitted parameters were considered not applicable if off-rate values were below the equipment's detection limit of kd: 1×10⁻⁶ 1/s.

[2] = biological target: T1, biotinylated native human ApoC3; experiment: SPR, IgG1 over biotinylated ApoC3 on SA chip, pH 5.5
Experimental: as §1, §2

native human ApoC3 [3] = biological target: T2, native human ApoC3 (human, UniProt P02656 21-99); experiment: SPR, ApoC3 over captured IgG1, pH 7.4
T2 construct: also called nhuApoC3; native huApoC3
T2 sequence (P02656 21-99): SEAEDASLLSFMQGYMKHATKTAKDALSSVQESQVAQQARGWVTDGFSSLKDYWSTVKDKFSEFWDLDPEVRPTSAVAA
Experimental: (§3) An inverted SPR assay was designed in which a test antibody was captured on an SPR chip, human ApoC3 protein was injected, and binding of ApoC3 to the antibody was measured. […] The immobilization was performed in accordance with the method provided by Biacore/GE using the NHS/EDC kit (Biacore AB, Cat.nr. BR-1000-50): after activation of the chip, a solution of 30 μg/ml of anti-human Fcγ antibody in 10 mM acetate buffer with pH of 5.0 was prepared and injected until the surface density reached approximately 10000 RU. The analytical cycle comprised the following steps:
(§4) The resulting sensorgrams were analyzed using the BIAevaluation 4.1 software using Langmuir 1:1 binding model to derive binding kinetics. Data was zero adjusted, the reference cell sensorgrams were subtracted and the no analyte blank assay was used for double referencing the sensorgrams corresponding to the analyte injections. The dissociation and association phase sensorgrams were fitted separately for the 4 different concentration curves. Sensorgrams were excluded from the fitting if maximum RU values reached were below the detection limit of the equipment (<5 RU), Biacore 3000 (Biacore AB).

[4] = biological target: T1, biotinylated native human ApoC3; experiment: SPR, IgG1 over biotinylated ApoC3 on SA chip
Experimental: as §1, §2

native human ApoC3 [5] = biological target: T2, native human ApoC3; experiment: SPR, ApoC3 over captured IgG1, pH 5.5
Experimental: as §3, §4

native human ApoC3 [6] = biological target: T2, native human ApoC3; experiment: SPR, ApoC3 over captured IgG1
Experimental: as §3, §4

T1 sequence (P02656 21-99): as above

Binder | Ka [1] [M⁻¹] | Kd [1] [pM] | koff [1] [s⁻¹] | kon [1] [M⁻¹ s⁻¹] | Ka [2] [M⁻¹] | koff [2] [s⁻¹] | kon [2] [M⁻¹ s⁻¹] | Ka (native human ApoC3 [3]) [M⁻¹] | koff (native human ApoC3 [3]) [s⁻¹] | kon (native human ApoC3 [3]) [M⁻¹ s⁻¹] | KD pH5.5/KD pH7.4 [4] | Ka (native human ApoC3 [5]) [M⁻¹] | koff (native human ApoC3 [5]) [s⁻¹] | kon (native human ApoC3 [5]) [M⁻¹ s⁻¹] | Kd [2] [pM] | KD (nM) pH5.5/pH7.4 (native human ApoC3 [6])
mAb20 (antibody, IgG1, V domains shown, Produced as full length IgG1 (kappa) in ExpiCHO-S cells; also called humanized anti-ApoC3 antibody mAb20) VH: QLVESGGGLVQPGGSLRLSCAASGFTFSTYSMRWVRQAPGKGLEWVSSIHTDAGGTAYRDSVKGRFTISRDNAKNTLYLQMNNLRPEDTAVYYCVIAGYSDWGQGTLVTVSS VL: DIVMTQSPGSLSVTPGEPASISCKTSQGLVHSGGKTYFYWFLQKPGQSPQQLIYQVSNRASGVPDRFTGSGSGTDFTLKISGVEAEDAGVYYCAHGTYYPHTFGQGTRLEIK | 1.71e+09 | 590 | 0.000487 | 831000 | 1.06e+08 | 0.0214 | 2.27e+06 | 747000 | 0.0737 | 55100 | 16.1 |  |  |  |  | 
mAb2 (antibody, IgG1, V domains shown, Produced as full length IgG1 (kappa) in ExpiCHO-S cells; also called humanized anti-ApoC3 antibody mAb2) VH: QLVESGGGLVQPGGSLRLSCAASGFTFGTYSMRWVRQVPGKGLEWVSSIHTEGGGTAYRDSVKGRFTISRDNAKNTLYLQMNSLRAEDTAIYYCVIAGYSDWGQGTLVTVSS VL: DIVMTQSPLSLPVTPGESASISCKTSQGLVHSDGKTYFYWFLQKPGQSPQQLIYQVSNRASGVPDRFSGSGSGTDFTLKISRVKAEDAGVYYCAHGTYYPHTFGQGTRLEIK | 1.81e+10 | 60 | 1.35e-05 | 245000 | 3.54e+09 | 0.000123 | 435000 | 9.69e+06 | 0.0046 | 44500 | 5.13 | 3.44e+06 | 0.0281 | 96600 | 280 | 2.82
mAb18 (antibody, IgG1, V domains shown, Produced as full length IgG1 (kappa) in ExpiCHO-S cells; also called humanized anti-ApoC3 antibody mAb18) VH: QLVESGGGLVQPGGSLRLSCAASGFTFSTYSMRWVRQAPGKGLEWVSSIHTEAGGTAYRDSVKGRFTISRDNAKNTLYLQMNNLRAEDTAVYYCVIAGYSDWGQGTLVTVSS VL: DIVMTQSPLSLPVTPGEPASISCKTSQGLVHSGGKTYFYWFLQKPGQSPQQLIYQVSNRASGVPDRFTGSGSGTDFTLKISRVEAEDAGVYYCAHGTYYPHTFGQGTRLEIK | 7.49e+08 |  | 0.000838 | 628000 | 1.16e+08 | 0.0155 | 1.79e+06 | 1.97e+06 | 0.0539 | 106000 | 6.48 |  |  |  |  | 
mAb16 (antibody, IgG1, V domains shown, Produced as full length IgG1 (kappa) in ExpiCHO-S cells; also called humanized anti-ApoC3 antibody mAb16) VH: QLVESGGGLVQPGGSLRLSCAASGFTFGTYSMRWVRQAPGKGLEWVSSIHTEAGGTAYRDSVKGRFTISRDNAKNTLYLQMNNLKAEDTAIYYCVIAGYSDWGQGTQVTVSS VL: DIVMTQSPLSLPVTPGESASISCKTSQGLVHSGGKTYFYWFLQKPGQSPQQLIYQVSNRASGVPDRFTGSGSGTDFTLKISRVEAEDAGVYYCAHGTYYPHTFGSGTRLEIK | 1.46e+09 | 690 | 0.000375 | 546000 | 1.34e+08 | 0.0121 | 1.63e+06 | 1.68e+06 | 0.0466 | 78100 | 10.8 |  |  |  |  | 
mAb3 (antibody, IgG1, V domains shown, Produced as full length IgG1 (kappa) in ExpiCHO-S cells; also called humanized anti-ApoC3 antibody mAb3) VH: QLVESGGGLVQPGGSLRLSCAASGFTFGTYSMRWVRQAPGKGLEWVSSIHTEGGGTAYRDSVKGRFTISRDNAKNTLYLQMNSLRAEDTAIYYCVIAGYSDWGQGTLVTVSS VL: DIVMTQSPLSLPVTPGESASISCKTSQGLVHSDGKTYFYWFLQKPGQSPQQLIYQVSNRASGVPDRFTGSGSGTDFTLKISRVKAEDAGVYYCAHGTYYPHTFGQGTRLEIK | 9.11e+09 |  | 2.33e-05 | 212000 | 2.85e+09 | 0.000127 | 363000 | 5.75e+06 | 0.00582 | 33400 | 3.19 | 3.09e+06 | 0.033 | 102000 | 350 | 1.86
